Results: article PMC11829585

Biological target: T1, HuNoV GII.2 VLP (Human norovirus GII.2, UniProt A0A291L9K1 1-542)
T1 sequence: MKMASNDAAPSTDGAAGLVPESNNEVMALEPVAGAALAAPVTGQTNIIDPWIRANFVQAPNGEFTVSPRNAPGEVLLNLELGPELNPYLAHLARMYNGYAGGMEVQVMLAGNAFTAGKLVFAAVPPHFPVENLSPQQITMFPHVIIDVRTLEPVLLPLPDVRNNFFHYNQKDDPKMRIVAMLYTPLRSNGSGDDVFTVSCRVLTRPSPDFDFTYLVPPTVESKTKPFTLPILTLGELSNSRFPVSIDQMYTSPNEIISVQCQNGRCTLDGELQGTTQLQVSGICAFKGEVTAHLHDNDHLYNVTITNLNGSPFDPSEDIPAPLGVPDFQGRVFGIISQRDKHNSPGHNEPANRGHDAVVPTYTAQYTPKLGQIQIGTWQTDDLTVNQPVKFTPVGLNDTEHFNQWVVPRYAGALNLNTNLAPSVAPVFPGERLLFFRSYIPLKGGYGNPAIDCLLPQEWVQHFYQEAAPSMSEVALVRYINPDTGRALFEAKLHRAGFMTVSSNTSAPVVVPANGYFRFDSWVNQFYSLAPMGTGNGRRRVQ
Test: dot blot

AACACGACAACCCTGTGACCAACGAACCACACCAAAGTGGGC (ssDNA) [AP4-2]
binding result: binds

GGAACACGACCCGTCTGTGGCCATCACAGTACAGCATCGTCGTG (ssDNA) [AP17-4]
binding result: binds
